Results: the supplement of paper PMC10567573

B1: ADAMTSL2 (parent)
chain: KKPPEESTCFERPCFKWYTSPWSE

Variants of: B1
Experiment: protein stability index of a GFP-peptide fusion (GPS, HEK-293T) (PSI 1-6); higher = more stable
Conditions: c terminus: a fixed tail appended
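Also: lentivirally expressed fusions sorted by FACS into six bins by GFP to DsRed ratio, PSI derived from sequencing read proportions per bin multiplied by bin number.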

Protein stability index of substitutions, site by site:
K16: F 1.9, L 2.51, R 2.27, T 2.22, Q 2.8, V 1.94, G 1.67, C 2.07, Y 1.72, M 2.43, D 3.04, P 2.13, W 1.86, N 2.63, S 2.49, I 1.77, H 4.02, E 3.35, A 2.62
E5: I 2.16, R 2.02, G 2.2, T 1.67, D 2.08, Y 2.01, L 2.33, P 1.82, Q 2, V 2.48, A 1.92, F 1.88, H 2.09, W 2.27, M 1.47, S 2.3, C 2.32, N 2.29, K 1.45
P3: M 2.29, L 2.26, I 1.93, R 2.46, S 2.29, G 2.34, V 2.16, A 2.83, T 2.21, N 2.94, Q 2.67, Y 1.88, F 2, E 3.04, H 1.84, W 2.6, D 2.77, K 2.18, C 2.08
F15: V 2.87, M 2.06, H 2.6, S 2.6, Y 2.77, Q 2.63, W 2.25, N 2.63, A 2.75, L 1.61, P 2.31, K 2.64, I 2.79, R 2, G 2.25, C 2.93, T 2.89, D 3.26, E 3.25
Y18: A 2.87, V 2.22, M 2.38, L 2.45, F 1.86, H 2.97, T 3, R 2.71, G 2.99, D 3.48, C 2.33, K 3.04, P 3.02, E 3.15, W 2.57, S 3.18, I 2.15, Q 2.58, N 2.81
T8: A 2.75, H 2.29, L 3.01, R 2.14, F 1.74, N 2.56, I 2.32, C 2.17, K 2.89, Q 2.79, G 2.37, D 2.61, E 2.69, Y 1.68, P 2.59, S 2.77, M 2.45, V 2.28, W 1.7
W17: C 2.56, D 3.6, R 2.96, P 3.5, Q 2.85, I 2.46, K 3.53, G 3.35, V 2.52, E 3.19, T 2.9, S 3.33, M 2.9, A 3.79, L 2.37, H 2.57, N 3.42, Y 2.86, F 2.88
T19: L 2.73, P 2.86, Y 1.84, K 2.03, S 3.24, H 2.65, F 2.28, A 2.28, D 2.65, I 2.35, N 3.43, R 2.22, V 2.78, E 3.38, M 2.2, Q 1.89, G 2.82, C 2.13, W 2.05
S7: I 2.28, N 2.24, R 2.19, D 2.4, L 1.39, C 2.66, T 2.39, Q 2.58, E 2.47, G 2.8, Y 2.64, M 2.08, K 2.21, P 2.21, W 1.66, V 2.42, H 2.51, A 2.31, F 2.11
C9: K 2.69, Q 3.34, L 2.05, I 2.25, P 2.7, E 3.33, S 2.35, D 2.97, A 2.43, T 2.84, F 2.3, W 2.04, Y 2.54, G 2.63, H 2.36, N 2.18, R 2.52, M 2.8, V 2.82
S20: A 2.88
E11: R 1.75, K 2.11, F 2.19, S 2.82, G 1.87, D 2.38, M 1.98, A 2.59, N 2.98, V 2.06, L 1.88, T 2.05, P 2.46, I 1.9, W 1.64, Y 2.19, Q 2.27, H 2.27, C 1.49
F10: N 2.45, P 3.19, T 3.19, L 2.81, I 2.81, M 2.83, Y 2.06, V 2.86, D 2.89, E 2.9, G 2.71, K 3.55, Q 2.54, W 2.09, H 2.99, A 2.51, C 2.14, S 3.46
R12: K 2.5, Y 2.84, I 2.03, V 2.29, T 2.09, L 2.04, N 2.55, G 2.42, W 2.24, H 2.63, S 2.79, D 3, E 2.95, Q 2.3, P 2.77, F 1.71, C 1.69, A 2.65, M 2.16
P13: L 2.09, I 2.02, H 2.21, A 2.23, E 2.49, T 2.16, V 1.96, F 2.18, M 2.02, Q 2.1, K 2.58, C 1.84, G 2.27, D 2.39, S 2.31, Y 1.87, N 2.32, R 1.79
P4: C 1.95, Q 2.72, W 1.75, K 2.49, V 2.77, H 1.94, N 2.19, S 2.21, Y 2.48, I 2.26, R 2.49, T 3, D 2.69, E 2.4, G 3.23, F 1.89, M 2.29, L 2.04, A 2.93
K2: V 2.04, M 2.72, R 2.61, Y 2.36, L 2.73, T 2.66, Q 2.29, N 2.94, S 2.15, P 2.27, I 1.78, W 2.39
E6: G 2.57, A 1.91, C 2.44, P 2.05, H 2.06, V 2.65, Q 2.06, R 2.05, Y 1.97, K 2.55, I 1.87, T 1.84, L 2.07, W 1.87, S 1.82, D 2.8, M 1.9, N 2.08, F 1.9
C14: Y 2.02, V 2.58, L 2.25, Q 2.68, T 2.42, A 2.94, M 2.62, G 3.12, K 2.69, I 2.23, H 2.23, E 2.89, D 3.26, P 3.09, W 1.9, N 2.98, R 3.7, F 2.39, S 2.23
